This is an account of results in patent publication US11787850B2, “Peptidic TGF-beta antagonists” (priority 2015, dated 2023).

Data set [1] has as its system TGF-β1-induced Smad3-driven (CAGA12-lux) transcriptional activity. The data set is described as follows: Luciferase reporter assay in HEK293-(CAGA)12 cells. The class given is cell-based.
Data set [2] can be described thus: Size-exclusion chromatography on Superdex Peptide 10/300GL column. The class given is physicochemical. The settings on record: for formation of aggregates by size-exclusion chromatography: peptide in PBS, Superdex Peptide 10/300GL, 0.6 ml/min; for Aggregation?: size-exclusion chromatography, peptide dissolved in PBS. The protocol: Approximately 200 μg of each peptide X (40 amino acids), X-1 (28 amino acids), peptide A (161 amino acids), P11 (11 amino acids), P16 (16 amino acids), P21 (21 amino acids, P16-2 (16 amino acids, scrambled sequence control), X-3 (16 amino acids) and X-4 (11 amino acids) were dissolved in phosphate-buffered saline (PBS) and loaded onto a Superdex Peptide 10/300GL column. The column was eluted with PBS at a flow rate of 0.6 mL/min and eluents were analyzed for peptide content by measuring relative absorbance at a wavelength of 215 nm. (FIGS. 3A and 3B) The data is plotted with relative absorbance (Y-axis) against elution volume (X-axis). Peptides 1-9 are color coded (A—peptides (1) to (5); B (peptides (6) to (9)). As shown on panel A, peptide X (peptide 1, black line) elution profile indicated two major peaks at approximately 8 mL and 11 mL which correspond to molecular weights greater than 12.4 kDa. The theoretical molecular weight of peptide X is 4.7 kDa which is expected to elute from the column at approximately 15 mL. Under the conditions tested, peptide X existed as high molecular weight aggregates with minimal soluble (monomeric) form. On the other hand, P16 (peptide 5, green line) elution profile indicated a broad peak between 14-22 mL which is expected to contain peptides of between 0.1 and 6 kDa and is consistent with its theoretical molecular weight of 2.01 kDa.
FIG. 4 illustrates the standard curve used for size-exclusion chromatography of standard peptides using the Superdex Peptide 10/300 GL column (results provided in FIG. 3). A pool of standard peptides of various molecular weights (1. cytochrome c (Mr 12.384 kDa) 1 mg/mL; 2. aprotinin (Mr 6.512 kDa) 2 mg/mL; 3. vitamin B12 (Mr 1.355 kDa) 0.1 mg/mL; 4. (Gly)3 (Mr 0.189 kDa) 0.1 mg/mL; 5. Gly (Mr 0.075 kDa) 7.8 mg/mL) were subjected to size-exclusion chromatography using the Superdex Peptide 10/300 GL column (flow rate 0.5 ml/min at room temperature, sample volume of 50 μL, eluent 0.05M phosphate, 0.15 M NaCl, ph 7.0). The resulting chromatogram (absorbance at 215 nm (in mAU, left Y axis) and conductivity (in mS/cm, right Y axis, in function of volume of elution (in mL)) indicates the elution profiles of the above peptides with high MW peptides eluting in earlier fractions and lower MW peptides eluting in later fractions as expected. The molecular weights of peptides were plotted against elution volume generating a standard curve (not shown).
More specifically, approximately […] of each peptide X (40 amino acids), X-1 (28 amino acids), peptide A (161 amino acids), P11 (11 amino acids), P16 (16 amino acids), P21 (21 amino acids, P16-2 (16 amino acids, scrambled sequence control), X-3 (16 amino acids) and X-4 (11 amino acids) were dissolved in phosphate-buffered saline (PBS) and loaded onto a Superdex Peptide 10/300GL column. The column was eluted with PBS at a flow rate of 0.6 ml/min and eluants were analyzed for peptide content by measuring relative absorbance at a wavelength of 215 nm. The data were plotted with relative absorbance (Y-axis) against elution volume (X-axis). […] The theoretical molecular weight of peptide X is 4.7 kDa which is expected to elute from the column at approximately 15 mL. […] P16 (peptide 5) elution profile indicated a peak between 14-22 mL which was expected to contain peptides of between 0.1 and 6 kDa and is consistent with its theoretical molecular weight of 2.01 kDa.
More specifically, a pool of standard proteins of various molecular weights were subjected to size-exclusion chromatography using the Superdex Peptide 10/300 GL column. The resulting chromatogram indicated the elution profiles of the peptides with high molecular weight peptides eluting in earlier fractions and lower molecular weight peptides eluting in later fractions as expected. The molecular weights of peptides were plotted against elution volume generating a standard curve (not shown) and was used to calculate molecular weights of the CD109-based peptides. […]
(Size exclusion chromatography separates by hydrodynamic size, large species first.)

The test system of data set [3] is TGF-β1-induced PAI-1 protein production in A431 cells. The experiment in a line: Western blot for PAI-1 in A431 cells. The class given is cell-based. The settings on record: 10 nM peptide, 100 pM TGF-β1, 24 hrs (FIG. 7). The protocol: FIG. 7 illustrates that the small molecular weight CD109-based peptide P16 (but not P11 or P16-1) inhibits TGF-β1-induced PAI-protein production. A431 cells were treated without (lane 1) or with 100 pM of TGF-β1 (lanes 2-6) in the absence (lane 2) or presence of 10 nM of P11 (11 aa peptide, lane 3), P16 (16 aa peptide, lane 4), P16-1 (scrambled peptide of 16 aa, lane 5) or Tris buffer (buffer, lane 6) for 24 hrs. Cell lysates were analyzed by Western blot for PAI-1 ([…]) protein levels and normalized to GAPDH protein levels (loading control). In the conditions tested, P16 (but not P11) inhibited TGF-β1-induced PAI-1 expression.
A431 cells were treated for 18 hours without (−) or with (+) 100 pM TGF-β1 in the presence or absence of Peptide X or P16. The peptides were previously dissolved in Tris buffer and left untreated or treated with DMSO prior to addition to the cells. Cell lysates were analyzed by Western blot for PAI-1 (plasminogen activator inhibitor-1) protein expression (top panel) and GAPDH served as a loading control (bottom panel). PAI-1 was not detected in untreated cells (lane 1).
A431 cells were grown in 6-well plates to 70-80% confluency and serum-starved overnight. Cells were washed with PBS and treated with or without TGF-β1 in presence or absence of various CD109-based peptides as indicated in the figure legends. Cells were solubilized with 500 μl of lysis buffer (50 mM Tris, pH 7.5, 150 mM NaCl, 50 mM NaF, 50 mM β-glycerophosphate, 1 mM sodium orthovanadate, 1 mM dithiothreitol, 5 mM EDTA, pH 8.0, 1% Nonidet P-40, 10% glycerol, 10 μM phenylmethylsulfonyl fluoride, 200 μg/ml bovine serum albumin, 1 μg/ml leupeptin, […] soybean trypsin inhibitor, 10 μg/ml benzamide, and 2 μg/ml pepstatin) for 30 min at 4° C. with mild agitation. Cell lysates were collected and centrifuged for 10 min at 10,000×g. The supernatants were collected and protein concentrations were determined using the Bio-Rad protein assay kit. Lysates containing equivalent protein concentrations were mixed with 0.2 volume of 5× electrophoresis sample buffer containing 5% β-mercaptoethanol and boiled for 5 min. Samples were resolved on 7.5% SDS-polyacrylamide gels and transferred to nitrocellulose membranes. Membranes were blocked for 3 h in blocking buffer (30 mM Tris, pH 7.5, 150 mM NaCl, and 0.05% (w/v) Tween 20™ (Tris-buffered saline/Tween) containing 5% (w/v) skim milk powder). The blot was incubated overnight at 4° C. with a 1:1000 dilution of anti-PAI-1 antibody (BD Biosciences). Blots were washed with Tris-buffered saline/Tween and incubated for 45 min at room temperature with a 1:5000 dilution of secondary antibody conjugated to horseradish peroxidase (Pierce). Chemiluminescence detection of the immune complexes was performed using the ECL system (Amersham Biosciences) according to the manufacturer's instructions. The membranes were stripped and reprobed with an anti-GAPDH antibody to confirm equal protein loading.
A431 cells were treated without (lane 1) or with 100 pM of TGF-β1 (lanes 2-6) in the absence (lane 2) or presence of 10 nM of P11 (11 aa peptide, lane 3), P16 (16 aa peptide, lane 4), P16-1 (scrambled peptide of 16 aa, lane 5) or Tris buffer (buffer, lane 6) for 24 hrs. Cell lysates were analyzed by Western blot for PAI-1 ([…]) protein levels and normalized to GAPDH protein levels (loading control).
A431 squamous cell carcinoma cells were treated for 18 hours without (−) or with (+) 100 pM TGF-β1 in the presence or absence of Peptide X or P16. The peptides were dissolved in Tris buffer and left untreated or treated with 0.5% DMSO prior to addition to the cells. Cell lysates were analyzed by Western blot for PAI-1 ([…]) protein expression (top panel) and GAPDH served as a loading control (bottom panel).
On the technique in general: In western blotting, separated proteins are transferred to a membrane and probed.

[4] abbreviates: 10 nM peptide, 100 pM TGF-β1, 18 hours (FIG. 6).

For GSRIYQEFEVT [Peptide X-4], the “inhibition of TGF-β1-induced CAGA12-lux activity” value in data set [1] (setting [4]) is on record as “did not”. Also, in data set [2], the “formation of aggregates by size-exclusion chromatography” value (from here on “formation of aggregates”) is reported as “did not” and the “Aggregation?” value is recorded as “Not aggregated”.

With LDTNMGSRIYQEFEVT [Peptide X-3], in data set [2], the “formation of aggregates” value is “formed aggregates” and the “Aggregation?” value is on record as “Aggregated”.

Regarding “ILNTWMDSTQIGYRWE [Peptide P16-1, scrambled peptide of 16 aa, control, reference compound]”, the “inhibition of TGF-β1-induced PAI-1 protein production” value in data set [3] was “no effect”.

For “WINMDTGQLIEQRYTS [Peptide P16-2, reference compound]”, the “inhibition of TGF-β1-induced CAGA12-lux activity” value in data set [1] (10 nM or 5 nM peptide, 100 pM TGF-β1, 18 hours (FIG. 5)) is “no inhibitory effect”. For the same sequence, the “inhibition of TGF-β1-induced CAGA12-lux activity” value in data set [1] (setting [4]) was “no effect”. In addition, in data set [2], the “formation of aggregates” value is reported as “did not” and the “Aggregation?” value is listed as “Not aggregated”.

As for ETWIWLDTNMG [Peptide P11], in data set [3], the “inhibition of TGF-β1-induced PAI-1 protein production” value is recorded as “not”. Besides, the “inhibition of TGF-β1-induced CAGA12-lux activity” value in data set [1] (setting [4]) was “did not”. Also, in data set [2], the “formation of aggregates” value is listed as “did not” and the “Aggregation?” value is recorded as “Not aggregated”.
